# B1: Mitogen-activated protein kinase kinase kinase 1 (Rattus norvegicus (Rat)), Q62925 (parent)
# chain: MAAAAGDRASSSGFPGAAAASPEAGGGGGALQGSGAPAAGAGLLRETGSAGRERADWRRQQLRKVRSVELDQLPEQPLFLTASPPCPSTSPSPEPADAAAGASGFQPAAGPPPPGAASRCGSHSAELAAARDSGARSPAGAEPPSAAAPSGREMENKETLKGLHKMDDRPEERMIREKLKATCMPAWKHEWLERRNRRGPVVVKPIPIKGDGSEMSNLAAELQGEGQAGSAAPAPKGRRSPSPGSSPSGRSGKPESPGVRRKRVSPVPFQSGRITPPRRAPSPDGFSPYSPEETSRRVNKVMRARLYLLQQIGPNSFLIGGDSPDNKYRVFIGPQNCSCGRGTFCIHLLFVMLRVFQLEPSDPMLWRKTLKNFEVESLFQKYHSRRSSRIKAPSRNTIQKFVSRMSNCHTLSSSSTSTSSSENSIKDEEEQMCPICLLGMLDEESLTVCEDGCRNKLHHHCMSIWAEECRRNREPLICPLCRSKWRSHDFYSHELSSPVDSPTSLRGVQQPSSPQQPVAGSQRRNQESNFNLTHYGTQQIPPAYKDLAEPWIQAFGMELVGCLFSRNWNVREMALRRLSHDVSGALLLANGESTGTSGGGSGGSLSAGAASGSSQPSISGDVVEAFCSVLSIVCADPVYKVYVAALKTLRAMLVYTPCHSLAERIKLQRLLRPVVDTILVKCADANSRTSQLSISTLLELCKGQAGELAVGREILKAGSIGVGGVDYVLSCILGNQAESNNWQELLGRLCLIDRLLLEISAEFYPHIVSTDVSQAEPVEIRYKKLLSLLAFALQSIDNSHSMVGKLSRRIYLSSARMVTTVPPLFSKLVTMLSASGSSHFARMRRRLMAIADEVEIAEVIQLGSEDTLDGQQDSSQALAPPRYPESSSLEHTAHVEKTGKGLKATRLSASSEDISDRLAGVSVGLPSSATTEQPKPTVQTKGRPHSQCLNSSPLSPPQLMFPAISAPCSSAPSVPAGSVTDASKHRPRAFVPCKIPSASPQTQRKFSLQFQRTCSENRDSEKLSPVFTQSRPPPSSNIHRAKASRPVPGSTSKLGDASKNSMTLDLNSASQCDDSFGSGSNSGSAVIPSEETAFTPAEDKCRLDVNPELNSSIEDLLEASMPSSDTTVTFKSEVAVLSPEKAESDDTYKDDVNHNQKCKEKMEAEEEEALAIAMAMSASQDALPIVPQLQVENGEDIIIIQQDTPETLPGHTKANEPYREDTEWLKGQQIGLGAFSSCYQAQDVGTGTLMAVKQVTYVRNTSSEQEEVVEALREEIRMMSHLNHPNIIRMLGATCEKSNYNLFIEWMAGASVAHLLSKYGAFKESVVINYTEQLLRGLSYLHENQIIHRDVKGANLLIDSTGQRLRIADFGAAARLASKGTGAGEFQGQLLGTIAFMAPEVLRGQQYGRSCDVWSVGCAIIEMACAKPPWNAEKHSNHLALIFKIASATTAPSIPSHLSPGLRDVALRCLELQPQDRPPSRELLKHPVFRTTW
# Variants of: B1
# Settings: with ube2n_human UBE2N
row,effect of a mutation on the interaction,Variant
1,disrupting interaction,L438A;M440A

# Reference: IntAct's records for PubMed 25260751
